Measured values from the supplement of paper PMC9170038.

Test system: MS2 coat protein
Test: apparent KD of MS2 coat protein; higher = weaker reporter binding
Details: Eterna round: R107
Description: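 RNA-MaP round R107: designed RNA switches with theophylline, tryptophan, arginine or FMN aptamers are transcribed on-chip within common flanks. They are titrated with SNAP-549-labelled MS2 coat protein in RNA-MaP buffer (100 mM Tris pH 7.5, 80 mM KCl, 4 mM MgCl2), without ligand or with the indicated ligand. Median apparent KD per design.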

[1] = input ligand: theophylline 20 uM
[2] = input ligand: theophylline 2 mM
[3] = input ligand: tryptophan 2.4 mM

Sequence	apparent KD of MS2 coat protein (input ligand: arginine 13.2 mM)	apparent KD of MS2 coat protein (input ligand: none)	apparent KD of MS2 coat protein [1]	apparent KD of MS2 coat protein [2]	apparent KD of MS2 coat protein [3]
AAUAACAAGAGGAUCACCCUUGUAAAAGAUACCAGAGUGAUGAUCCUCCCUUGGCAGCUUAACGCUGAUUGAUUACAAUCAGCGA	27 nM	35.5 nM	81.8 nM	142 nM	32 nM
UGUAUGGACUGAAGGAGCGGAAAAUAAAUCUGAGGAUCACCCAGGUAAUAGGCGAAAGCCAUCCAGGUAGGUCGCAGUCCAUACU	56.9 nM	86.7 nM	101 nM	133 nM	105 nM
GGGCAAGAGGGAAGGAGCGUUAGCUGAGUCACAUGAGGAUCACCCAUGUCGCACAUAGUAUGACAGGUAGGUCGCCCUCUACCCU [SS-ArgB14]	17.7 nM	15.6 nM	28.7 nM	18.2 nM	16.8 nM
CACGCACGAUCGGCCGCCACUCAUGUAGCUUACAUGAGGAUCACCCAUGUAUUUUCUUUCUUUUAGAGGACCGGGAUCGUGCGUG [#03 Same State - Tryptophan B]	25 nM	–	48.5 nM	35 nM	–
GUCGGUACGUCGGCAAAGCCGAUGUGCCAGCGAGGACCGGUACGGCCGCCACUCGUACAUGAGGAUCACCCAUGUCCGGUCCGGC [Omei Trp SS A C v2]	32.5 nM	–	84.4 nM	92.4 nM	–
GUAUAAAGAAAACUUUAUACAGUGGGUGAACGAGGACCGGUACGGCCGCCACUCGGACAUGAGGAUCACCCAUGUCCAUGUGAAA [AstrosExyTryA#9]	14.4 nM	14.3 nM	13.9 nM	17 nM	37.2 nM
UUCGUUUGCGGAAGGAGCGACGGACAUCGGUGAACAACGCACAUGAGGAUCACCCAUGUACGUCAGGUAGGUCGCCGCUAAGAGU [XArg-B3]	29.3 nM	105 nM	134 nM	375 nM	73.6 nM
AUCGUACCUAGUGAUACCAGCAAGUGAUCAUAACAUGAGGAUCACCCAUGUAAUCAGUGAUGCCCUUGGCAGCAUAAUCGUUACA [Same State - Theophylline B (Freestyle 1)]	118 nM	–	228 nM	–	173 nM
GCCUAGCAUCGAAGGAGCGGGCAUUACGCGCGAAAGCGCGAUGCACGAGGAUCACCCGUGUCCCAGGUAGGUCGCGAUGCUAGGC [SSAB Alternative Aptamer #4 V+V2]	153 nM	508 nM	368 nM	527 nM	343 nM
GUUAUGAUAAGAAGGAGCGUCGAAAAUGGGUAAACAUGAGGAUCACCCAUGUAAAGGGAACGACAGGUAGGUCGCUUAUUAUAAC [AstromonsSSArgB#20]	86.8 nM	190 nM	270 nM	161 nM	154 nM
GAUGAACUAUAUGAUACCAGACAACAUGAGGAUCACCCAUGUGAAUGUCGUCCUCUGCCUGUCCCUUGGCAGCGUAUAGUUUAUC [XTheo B #15]	29.3 nM	–	67.6 nM	–	20.3 nM
ACAUGAGGAUCACCCAUGUAGUGGCACGAUACCAGCUGAUCCCGUGGCCCUUGGCAGCGUCCGGUGUGGUGCGCCGGGUUGGAGC [BBBMULLIN]	38 nM	–	77.4 nM	–	48.9 nM
GACAUGAGGAUAGAUACCAGCGACAUGAGGAUCACAUGAGGAUCACCCAUGUGUAGUAUACGCCCUUGGCAGCUAACAUGAGGAU [Same State Theophylline B 3]	59.5 nM	–	129 nM	–	68.1 nM
AAAAUCCUACCUGAGGAUCACCCAGGUGAAGGAGCGCCCGAAAGGGCAGGUAGGUCGCACCUGAGGAUCACCCUGGUAAACCUAA [ArgEX 22 #DoubleMS2 #OpenEnded]	30.9 nM	44 nM	47.6 nM	56.8 nM	40.6 nM
GCAUCCUAGUCGGCCGCCACUGCAGGAUCGGCGGCAGAUCCUCAACAUGAGGAUCACCCAUGUAGCAGGACCGGGACUAGGAUGC [(Trp1)-(TM)''-(TM)'-(Ms2)-(Trp2)_Design2]	36.3 nM	91.6 nM	80.3 nM	48.1 nM	99.8 nM
AAUGGCCGUACCGGAAGGGUGAUCCUCAAACGAGGACCGGUACGGCCGCCACUCGAUAACAUGAGGAUCACCCAUGUAAUAAUAA [|T'-M'-Trp-Ms2|_Design13]	85 nM	–	481 nM	677 nM	–
GCGAUGGAGCGAAGGAGCGUGCUAGUACAUGAGGAUCACCCAUGUGAGUCGCAUCGCUAAGCACAGGUAGGUCGCGCUCCAUCGC [EAB NP+V+V2 #9]	44.6 nM	94.2 nM	122 nM	145 nM	87.6 nM
